Assay results from publication PMC9482650, “Quantitative fragmentomics allow affinity mapping of interactomes” (Nature Communications, 2022).

T1: DFNB31_1, Q9P202
T1 sequence (Q9P202 135-233, limits assumed, looked up): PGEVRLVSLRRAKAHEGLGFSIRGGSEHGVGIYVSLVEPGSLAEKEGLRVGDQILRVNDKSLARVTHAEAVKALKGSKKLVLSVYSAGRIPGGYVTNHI

T2: DLG3_1, Q92796
T2 sequence (Q92796 125-227, limits assumed, looked up): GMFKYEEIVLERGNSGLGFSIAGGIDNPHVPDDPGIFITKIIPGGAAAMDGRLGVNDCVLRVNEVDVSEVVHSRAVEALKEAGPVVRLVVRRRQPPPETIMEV

T3: DLG3_2, Q92796
T3 sequence (Q92796 221-321, limits assumed, looked up): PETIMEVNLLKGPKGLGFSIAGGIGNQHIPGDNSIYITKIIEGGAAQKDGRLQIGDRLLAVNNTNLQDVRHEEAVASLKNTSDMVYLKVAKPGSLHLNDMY

T4: GRIP1_2, Q9Y3R0
T4 sequence (Q9Y3R0 145-248, limits assumed, looked up): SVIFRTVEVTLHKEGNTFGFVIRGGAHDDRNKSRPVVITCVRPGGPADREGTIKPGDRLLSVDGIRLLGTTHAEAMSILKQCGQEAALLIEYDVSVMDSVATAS

T5: GRIP1_4, Q9Y3R0
T5 sequence (Q9Y3R0 467-571, limits assumed, looked up): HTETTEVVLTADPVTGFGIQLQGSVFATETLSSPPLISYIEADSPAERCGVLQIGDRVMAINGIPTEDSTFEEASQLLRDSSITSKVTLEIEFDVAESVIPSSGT

T6: HTRA3, P83110
T6 sequence (P83110 354-453, limits assumed, looked up): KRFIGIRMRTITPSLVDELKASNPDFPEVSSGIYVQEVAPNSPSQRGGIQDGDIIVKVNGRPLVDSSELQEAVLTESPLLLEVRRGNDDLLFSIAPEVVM

T7: LIN7B, Q9HAP6
T7 sequence (Q9HAP6 88-185, limits assumed, looked up): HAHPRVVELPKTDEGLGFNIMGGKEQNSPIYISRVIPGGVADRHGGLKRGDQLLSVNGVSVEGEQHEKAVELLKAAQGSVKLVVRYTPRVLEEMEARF

T8: MPDZ_10, O75970
T8 sequence (O75970 1624-1722, limits assumed, looked up): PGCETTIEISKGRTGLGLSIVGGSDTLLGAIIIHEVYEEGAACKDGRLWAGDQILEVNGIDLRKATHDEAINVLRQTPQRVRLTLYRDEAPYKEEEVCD

T9: PARD3B_1, Q8TEW8
T9 sequence (Q8TEW8 196-299, limits assumed, looked up): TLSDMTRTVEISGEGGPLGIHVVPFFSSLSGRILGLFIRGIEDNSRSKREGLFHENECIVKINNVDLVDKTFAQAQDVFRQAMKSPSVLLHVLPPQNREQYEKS

T10: PTPN13_1, Q12923
T10 sequence (Q12923 1088-1188, limits assumed, looked up): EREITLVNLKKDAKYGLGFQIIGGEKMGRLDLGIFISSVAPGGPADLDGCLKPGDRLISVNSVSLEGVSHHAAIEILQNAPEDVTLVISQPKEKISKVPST

T11: RHPN1, Q8TCX5
T11 sequence (Q8TCX5 508-602, limits assumed, looked up): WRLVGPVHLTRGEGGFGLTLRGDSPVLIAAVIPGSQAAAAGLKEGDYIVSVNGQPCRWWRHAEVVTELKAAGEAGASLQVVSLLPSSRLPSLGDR

T12: SYNJ2BP, P57105
T12 sequence (P57105 8-110, limits assumed, looked up): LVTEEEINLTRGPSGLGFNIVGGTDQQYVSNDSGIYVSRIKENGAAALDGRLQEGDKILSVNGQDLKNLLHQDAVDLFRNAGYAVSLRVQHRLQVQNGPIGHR

B1: OR10G3, Q8NGC4 (peptide)
chain: LRSPRTPSEV
B2: EVI5, O60447 (peptide)
chain: RRRESYSTTV

Legend:
Assay in all cases: holdup assay
Design in all cases: key: below the threshold = too weak to quantify, mostly under pKd 3.1 to 4
Conditions in all cases: plain residues with an end cap or a label only (N-terminal biotin on a linker: ado-ado)
[1] = target: T1, DFNB31_1, Q9P202
[2] = target: DLG1_3, Q12959
[3] = target: T2, DLG3_1, Q92796
[4] = target: T3, DLG3_2, Q92796
[5] = target: DLG4_1, P78352
[6] = target: GORASP2, Q9H8Y8
[7] = target: T4, GRIP1_2, Q9Y3R0
[8] = target: T5, GRIP1_4, Q9Y3R0
[9] = target: HTRA1, Q92743
[10] = target: T6, HTRA3, P83110
[11] = target: IL16_1, Q14005
[12] = target: Inadl_10, Q8NI35
[13] = target: Inadl_5, Q8NI35
[14] = target: Inadl_9, Q8NI35
[15] = target: LAP2, Q96RT1
[16] = target: T7, LIN7B, Q9HAP6
[17] = target: T8, MPDZ_10, O75970
[18] = target: NHERF4_4, Q86UT5
[19] = target: NOS1, P29475
[20] = target: T9, PARD3B_1, Q8TEW8
[21] = target: T10, PTPN13_1, Q12923
[22] = target: T11, RHPN1, Q8TCX5
[23] = target: T12, SYNJ2BP, P57105
[24] = target: TJP1_3, Q07157
[25] = target: TJP2_1, Q9UDY2
TJP2_1, Q9UDY2, sequence (Q9UDY2 24-128): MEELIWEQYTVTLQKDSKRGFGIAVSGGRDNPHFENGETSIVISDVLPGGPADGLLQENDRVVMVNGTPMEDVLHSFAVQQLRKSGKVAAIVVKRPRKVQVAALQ

Inadl_5, Q8NI35, sequence (Q8NI35 673-780): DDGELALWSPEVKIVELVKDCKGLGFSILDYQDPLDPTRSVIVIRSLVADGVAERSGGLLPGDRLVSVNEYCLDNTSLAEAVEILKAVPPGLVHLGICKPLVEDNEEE
TJP1_3, Q07157, sequence (Q07157 416-512): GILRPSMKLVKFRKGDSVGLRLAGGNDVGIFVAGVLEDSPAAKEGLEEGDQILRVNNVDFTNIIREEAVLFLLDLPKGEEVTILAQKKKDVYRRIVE
Inadl_10, Q8NI35, sequence (Q8NI35 1673-1763): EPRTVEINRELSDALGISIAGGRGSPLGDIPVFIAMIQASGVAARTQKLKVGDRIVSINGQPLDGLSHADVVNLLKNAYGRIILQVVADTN
HTRA1, Q92743, sequence (Q92743 360-477): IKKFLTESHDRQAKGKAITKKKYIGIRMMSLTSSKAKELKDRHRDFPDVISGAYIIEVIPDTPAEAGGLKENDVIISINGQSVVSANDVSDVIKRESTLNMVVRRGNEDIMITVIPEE
DLG4_1, P78352, sequence (P78352 62-152): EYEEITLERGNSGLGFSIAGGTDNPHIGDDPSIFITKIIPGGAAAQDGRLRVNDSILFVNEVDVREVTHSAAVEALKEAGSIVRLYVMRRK
DLG1_3, Q12959, sequence (Q12959 457-571): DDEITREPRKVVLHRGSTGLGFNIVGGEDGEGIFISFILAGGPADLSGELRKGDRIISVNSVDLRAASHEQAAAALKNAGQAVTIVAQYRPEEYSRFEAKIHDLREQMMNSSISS
LAP2, Q96RT1, sequence (Q96RT1 other isoform, or with tags, fused parts or gaps): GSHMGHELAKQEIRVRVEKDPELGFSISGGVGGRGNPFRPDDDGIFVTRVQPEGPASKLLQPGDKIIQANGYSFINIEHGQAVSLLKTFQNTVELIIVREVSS
NOS1, P29475, sequence (P29475 9-101): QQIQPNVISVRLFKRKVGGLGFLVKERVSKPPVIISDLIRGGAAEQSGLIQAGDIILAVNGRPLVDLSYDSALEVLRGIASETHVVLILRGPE
Inadl_9, Q8NI35, sequence (Q8NI35 1530-1615): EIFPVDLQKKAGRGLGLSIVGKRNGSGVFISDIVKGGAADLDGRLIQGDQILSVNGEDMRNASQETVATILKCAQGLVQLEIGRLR
NHERF4_4, Q86UT5, sequence (Q86UT5 464-550): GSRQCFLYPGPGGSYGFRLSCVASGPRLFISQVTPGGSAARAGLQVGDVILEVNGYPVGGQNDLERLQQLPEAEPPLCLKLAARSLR
IL16_1, Q14005, sequence (Q14005 210-306): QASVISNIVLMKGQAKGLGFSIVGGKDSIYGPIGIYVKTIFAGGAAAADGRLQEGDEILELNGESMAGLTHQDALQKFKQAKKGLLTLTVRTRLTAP

| Binder | pKd [1] | pKd [2] | pKd [3] | pKd [4] | pKd [5] | pKd [6] | pKd [7] | pKd [8] | pKd [9] | pKd [10] | pKd [11] | pKd [12] | pKd [13] | pKd [14] | pKd [15] | pKd [16] | pKd [17] | pKd [18] | pKd [19] | pKd [20] | also measured |
| --- | --- | --- | --- | --- | --- | --- | --- | --- | --- | --- | --- | --- | --- | --- | --- | --- | --- | --- | --- | --- | --- |
| B1 | below the threshold | below the threshold | below the threshold | 3.65 | 3.49 | below the threshold | below the threshold | below the threshold | 3.58 | below the threshold | below the threshold | below the threshold | 4.73 | 4.01 | 3.9 | 3.85 | 3.67 | below the threshold | 3.76 | below the threshold | pKd [21]: 3.71; pKd [22]: below the threshold; pKd [23]: 4.61; pKd [24]: below the threshold; pKd [25]: below the threshold |
| B2 | 3.52 | 4.16 | 5.06 | 5.44 | 5.79 | 5.13 | below the threshold | below the threshold | 4.45 | 3.66 | below the threshold | 3.8 | 3.63 | 3.88 | 3.88 | below the threshold | below the threshold | below the threshold | below the threshold | below the threshold | pKd [21]: below the threshold; pKd [22]: below the threshold; pKd [23]: 4.89; pKd [24]: below the threshold; pKd [25]: 4.84 |
